Assays:
[1] = test system: microglial cultures isolated from the retina and brain or the BV2 cells; assay: COX2 immunostaining in LPS-treated microglial cultures (retina, brain, BV2 cells); type: cell-based, mouse; details: IGFBPL1 added 6 hr after LPS
Experimental: For primary retinal microglia isolation, microglia cells were isolated from mice retina using magnetic CD11b microbead (BD, 558013). The purification protocol was following manufacture's instructions. Briefly, the papain dissociated retinal cells were resuspended into diluted BD IMag™ Buffer (BD, Cat. No. 552362). After 6-8 mins washing at 300 g, 50 ul of magnetic CD11b microbeads were added for every 10^7 total cells and then incubated for 30 mins at 6-12° C. Then bring the BD IMag-particle labeling volume up to 1-8×10^7 cells/ml with 1×BD IMag™ buffer, and immediately place the tube on the Cell Separation Magnet (BD, Cat. No. 552311). Carefully aspirate off the supernatant after 6-8 minutes incubation at room temperature, and then repeat two times washing. The positive fractions left in the tube were then collected for culture. Around 3000 cells per well were seeded in 8-well Nunc® Lab-Tek™ II Chamber Slide™ (Thermo Scientific, Cat. No. 154534PK). The isolated microglial cells were cultured at 37° C. with 5% C02 in DMEM with 10% FBS and 50 ng/ml rmCSF1 (PeproTech, Cat. No. 315-02).
For primary mouse brain microglia isolation, we optimized our protocol based previously reported protocol^2. First step was to collect brain after perfusing mice with saline. […]

[2] = test system: DBA/2J mice; assay: DBA/2J chronic glaucoma mouse model, monthly intravitreal administration; type: in vivo; details: 10 m-old DBA/2J mice
Experimental: Adult (10-12 weeks old) male and female C57BL/6J (B6) (The Jackson Laboratory, 000664), Cx3cr1^GFP (The Jackson Laboratory, 005582), DBA/2J mice (The Jackson Laboratory, 000671) Igf1r^(lax) inducible knockout mice (The Jackson Laboratory, 012251) as well as Cx3cr1^tm2.1(cre/ERT2) mice were obtained from the Jackson Laboratory. Igf1r^(lax) mice were crossed with Cx3cr1^tm2.1(cre/ERT2) mice to generated Igf-1r specific knock out on microglia after 3 consecutive days injection of 100 mg/kg tamoxifen to mice. IGFBPL1 deficiency mice at a C57BL/6J genetic background (Knockout Mouse Project Repository, University of California at Davis) were used in following experiments. Mice of both genders were randomized into control and experimental groups. All experimental procedures and use of animals were approved and monitored by the Institute's Animal Care Committee and conform to the standards of the National Institute of Health and the Association for Research in Vision and Ophthalmology.
Adult mice were anesthetized by i.p. injection of ketamine (120 mg/kg)/xylazine (20 mg/kg) mixture using 25 G needle. […] Mice will be placed on a warm pad and monitored every 15 minutes until awake and fully sternal.
The adult mice were dark adapted in a dark adaptation chamber overnight before conducting ERG. […] The pSTR was measured from the baseline to the peak of the positive deflection. […]

B1: IGFBPL1: insulin-like growth factor binding protein like protein 1; recombinant protein (R&D system, 4130-BL) (protein)
chain: LGLRDAGRRHPECSPCQQDRCPAPSPCPAPWISARDECGCCARCLGAEGASCGGPVGSRCGPGLVCASRASGTAPEGTGLCVCAQRGAVCGSDGRSYSSICALRLRARHAPRAHHGHLHKARDGPCEFAPVVLMPPRDIHNVTGTQVFLSCEVKAVPTPVITWKKVKHSPEGTEGLEELPGDHVNIAVQVRGGPSDHETTSWILINPLRKEDEGVYHCHAANAIGEAQSHGTVTVLDLNRYKSLYSSVPGDLL
[1]
  LPS-induced COX2 upregulation: suppressed
[2]; versus vehicle-treated group
  Survived axon in optic nerve: significantly preserved
[2]; after four monthly doses
  RGC density and pSTR amplitude: effectively protect RGCs and functions

From patent US20250051458A1, “Methods for Treating Neurodegeneration Targeting IGF1/IGF1R” (The Schepens Eye Research Institute, Inc., priority 2021, published 2025)
